This experiment deals with T1, Pick bodies (cellular inclusions of Pick's disease, only constituted of 3R tau proteins) (human, UniProt P10636-5 2-410, limits assumed).
T1 construct: Target in tissue sections (IHC)
The experiment can be described thus: IHC on human paraffin sections, Pick's disease. Here is the method:
Immunohistochemistry was performed on formalin-fixed tissues (paraffin-embedded or frozen sections or vibratome sections). Standard IHC protocols were applied and adapted for each tissue conditions. As most of immunostaining experiments were performed using paraffin sections, a detailed protocol for paraffin-embedded material is described herein. Immunostaining of brain tissue was performed on 4 µm thick paraffin sections. Both human and mouse tissues were used (Human patients with AD or other tauopathies and Tg4510 mice (Santacruz et al. 2005 Science, 309, 476-481). Sections were de-paraffinized in xylene, rehydrated through ethanol (100%, 90%, and 70%), 5 min for each solution and finally brought to running tap water for 10 min. They were then incubated in 98% formic acid for 5 min, washed again under running tap water, quenched for endogenous peroxidase with 3% hydrogen peroxide and 20% methanol, and finally washed in water. Non-specific binding was blocked by incubating the sections for 30 min in 2% bovine serum albumin in TBS+0.5% Tween. Appropriate dilutions of primary antibodies (1-10 µg/ml of VHH with either His or Strep tag) were then applied and slices incubated overnight in a humidified chamber at 4° C. […]

T1 sequence (P10636 other isoform, or with tags, fused parts or gaps limits assumed): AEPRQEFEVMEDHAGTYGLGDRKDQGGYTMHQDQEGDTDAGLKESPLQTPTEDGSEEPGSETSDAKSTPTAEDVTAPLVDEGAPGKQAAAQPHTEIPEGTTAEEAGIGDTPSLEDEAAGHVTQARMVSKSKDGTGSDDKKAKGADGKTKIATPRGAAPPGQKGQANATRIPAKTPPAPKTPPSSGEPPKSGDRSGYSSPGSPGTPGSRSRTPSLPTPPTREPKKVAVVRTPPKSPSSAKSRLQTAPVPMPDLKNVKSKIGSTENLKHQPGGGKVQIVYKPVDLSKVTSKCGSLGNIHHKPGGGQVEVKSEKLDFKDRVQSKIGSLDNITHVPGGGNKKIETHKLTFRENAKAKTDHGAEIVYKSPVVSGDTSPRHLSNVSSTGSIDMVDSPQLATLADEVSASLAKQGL

B1: VHH Tau-A2 (VHH)
VHH: EVQLQASGGGLVQAGGSLRLSCAASGRSFSGSTMEWYRQAPGKERKFVAAIRTISSRTYYVDSVKGRFTISRDSTKNTVYLQLNSLKVEDTAVYYCAARFSGTIGTTSSVDYWGQGTQVTVSS
notes: Alpaca VHH, expressed in E. coli with a His-tag or a Strep-tag; monomeric by DLS; not shown: 6-Histidine tag (pET23d) or C-terminal Strep-tag (pASK IBA2)
B1: the binding result is given as “no binding”.
